The values that follow come from patent US20230340555A1, “PRODUCTION OF GLYCOSYLATED CANNABINOIDS” (WILLOW BIOSCIENCES, INC., priority 2020, published 2023).

This assay deals with CN3 yeast strain host cells. As to the kind of experiment: Detection of glycosylated cannabinoids and cannabinoid precursors in yeast cells expressing UDP-glycosyl transferase (HPLC-MS). The format is cell-based. Conditions: pellet or supernatant of recombinant yeast host cells transformed with the UGT. An excerpt:
CN3 yeast strain host cells were transformed as described in Example 1 with one of the following heterologous UGT genes: (1) AtUGT73C6, (2) AtUGT73B4, (3) AtUGT71 D1, (4) AtUGT76E12, (5) AtUGT88A1, (6) HaUGT76G1-L, (7) At5g49690, (8) AtUGT76C4, (9) CsUGT73C6, (10) SrUGT76C1, (11) AtUGT85A3, (12) AtUGT73B1, (13) Atg65550, (14) AtUGT76B1, (15) ATUGT76B1, (16) CsUGT75B2, (17) CsUGT73B4, (18) CsUGT73B1, (19) CsUGT75D1-DN11028, and (20) CsUGT71D1-DN48028. The transformed host cells were pre-grown overnight in yeast extract peptone dextrose (YPD) growth medium and then back diluted into yeast extract peptone galactose (YPG) to OD600 = 0.2. […] Strains were incubated for 20 h at 28° C. rotating at 600 RPM in an EPOCH|2 microplate reader (BioTek). Subsequently, samples were treated with an extraction solvent (80 % Acetonitrile, 20 % Methanol) for 1 hour rotating at 100 RPM. After 20 minutes centrifugation at 12,000 RPM, the supernatant was filtered with a basix 13 mm syringe filter (0.22 µm pore size, Nylon membrane) and transferred to a new tube for further analysis.
Glycosylated cannabinoid compounds and glycosylated cannabinoid precursor compounds were assayed in the supernatant and the cellular pellet employing HPLC and HPLC-MS analysis. HPLC and HPLC-MS analysis was carried out as described below to detect the following glycosylated cannabinoid and cannabinoid precursor compounds: CBGA monoglucoside, CBGA diglucoside, CBDA monoglucoside, CBDA diglucoside, CBGA glucuronic acid, CBD monoglucoside, CBD diglucoside, olivetolic acid monoglucoside (“OliAcid monoglucoside”), olivetolic acid diglucoside (“OliAcid diglucoside”).
HPLC analysis was carried out on an Agilent Technologies 1290 Infinity system, consisting of a vacuum degasser, a binary pump, a thermostated autosampler, a thermostated column compartment and a diode array detector (DAD). A Zorbax Eclipse Plus EC-18 column (2.1 × 50 mm, 1.8 µm, Agilent, USA) was used with a mobile phase composed of 0.1% formic acid in both (A) water with 0.2 % Formic Acid and (B) Acetonitrile with 0.2 % Formic Acid. The chromatographic conditions were set as follows: 0.0-8.0 min linear gradient from 5 to 95% B; 8.1-9.09 min […], 9.10-11.0 min 5 to 95% A for equilibration of the column with the initial conditions. The flow rate was set at 0.4 ml/min. The column temperature was set at 40° C. The sample injection volume was 5 µL. The UV/DAD acquisitions were carried out in the range 190-400 nm and chromatograms were acquired at 265 and 350 nm.
HPLC-MS analysis was carried out to confirm the identity of the HPLC peaks using an Agilent Technologies 6530 Accurate-Mass quadrupole time of flight (QToF) mass spectrometer operating in negative ionization (ESI -) mode. The mass spectrometer experimental parameters were set as follows: the capillary voltage was 3.5 kV, the nebulizer (N2) pressure was 35 psi, the drying gas temperature was 350° C., the drying gas flow was 11 L/min and the skimmer voltage was 65 V. Data were acquired by Agilent Mass Hunter software. The mass spectrometer was operated in full-scan mode in the m/z range 50-1100. Extracted ion chromatograms (EICs) were obtained with an accuracy of 10 ppm m/z from total ion chromatogram (TIC) employing the m/z corresponding to the molecular ions [M-H]^- 385.1504 for Olivetolic Acid Mono-Glucoside, 547.2032 for Olivetolic Acid di-Glucoside, 521.2756 for CBGA Mono-Glucoside, 683.3284 for CBGA Di-Glucoside, 535.2549 for CBGA Glucuronic Acid, 519.2600 for CBDA Mono-Glucoside, 475.2701 for CBD Mono-Glucoside, 637.3302 for CBD Di-Glucoside.
The glycosylated cannabinoid compounds and glycosylated cannabinoid precursor compounds were detected in a relative and semi-quantitative fashion. […]

B1: CsUGT73B4: UDP-glycosyl transferase from Cannabis sativa, amino acid sequence SEQ ID NO: 34 (protein, listed as Cannabis sativa)
chain: MSKGHTIPLLHLARVLLNRHVTVTIFTTPANRSFITKFLPATSAAIVELPFPKNIPGVPNGVENTEDFPTMSMSMFYSLVLGTQNMKPDLDRALENIQTPVSFMVSDGFLWWTLDSASKLGFPRLVFYGMSHYAMAVYHSLFNSKKPKQTETETVVSDFPWIKLTRSEYDPSAQNGEDQSLAHEFMSKATEATNNSFGMIYNSFYELEPMFTDYWNQKVGPKSWPLGPLCLHDMKIESRGLVVHPWLDEKESSSVLYVAFGSQATVSSEQVREIAKGLEYSNVNFFWVLRKLEPEENKFLEEFEKRVKNRGIVVRDWVNQMEILKHKSVKGFFSHCGWNSVMESLSAGLPILGFPMMAEQHINAKMVVEEIKIGLRVKSYDGSLNGIVKSEEVSKMVKELMEGEVGKEMRKKVEEFAVMAHKAVQKGGSSWETLDLLLSSTKQRIHHY
B1: the “production of glycosylated cannabinoids or cannabinoid precursor compounds” value (“production” below) is on record as “No production”.

B2: AtUGT76B1: UDP-glycosyl transferase from Arabidopsis thaliana, amino acid sequence SEQ ID NO: 28 (protein, listed as Arabidopsis thaliana)
chain: METRETKPVIFLFPFPLQGHLNPMFQLANIFFNRGFSITVIHTEFNSPNSSNFPHFTFVSIPDSLSEPESYPDVIEILHDLNSKCVAPFGDCLKKLISEEPTAACVIVDALWYFTHDLTEKFNFPRIVLRTVNLSAFVAFSKFHVLREKGYLSLQETKADSPVPELPYLRMKDLPWFQTEDPRSGDKLQIGVMKSLKSSSGIIFNAIEDLETDQLDEARIEFPVPLFCIGPFHRYVSASSSSLLAHDMTCLSWLDKQATNSVIYASLGSIASIDESEFLEIAWGLRNSNQPFLWVVRPGLIHGKEWIEILPKGFIENLEGRGKIVKWAPQPEVLAHRATGGFLTHCGWNSTLEGICEAIPMICRPSFGDQRVNARYINDVWKIGLHLENKVERLVIENAVRTLMTSSEGEEIRKRIMPMKETVEQCLKLGGSSFRNLENLIAYILSF
For the molecule B2, the “production” value was “No production”.

B3: CsUGT75B2: UDP-glycosyl transferase from Cannabis sativa, amino acid sequence SEQ ID NO: 32 (protein, listed as Cannabis sativa)
chain: MVQPRFLILAFPLQGTINPCLNLANQLIRVANAQVTFVTSVNAHRLIMTTHTVATTSNNLLSFSPFFDGYDEGVTDGKGFHDHFVEFKRRGWQAVGDILELGFKEGRPYTCLVYSILLTWAADVAATHNVPASMFWMQPATVFDVYYYYFHGHKEIICANTKNHSFSLSFPRIPLTMNLKDLPSLMVDSNYSYILTMLHEMYKDFEKESNNTKIILVNTFDELEPDALRAINKFNLIGIGPLITSKTSFSFRNYIEWLNTKPKKTVVYVSFGSILILKKQQMDEIAKGLLEFGHPFLWVIKEKNSSSKEGVHEDNIKNELSYKEELEKLGMIVPWCSQMEVLRNESLGCFVTHCGWNSTLESIVSGVPVVAFPQWTDQQTNAKLIEEMWKIGVRVKPDEDGIVKSEEIKRCLELVMSKNENRTEIVKNVKKWQNLTKEAMREGGSSEKNLITFVKSIHQ
On to B3, for which the “production” value was “No production”.

B4: AtUGT76D1: UDP-glycosyl transferase from Arabidopsis thaliana, amino acid sequence SEQ ID NO: 30 (protein, listed as Arabidopsis thaliana)
chain: MAEIRQRRVLMVPAPFQGHLPSMMNLASYLSSQGFSITIVRNEFNFKDISHNFPGIKFFTIKDGLSESDVKSLGLLEFVLELNSVCEPLLKEFLTNHDDVVDFIIYDEFVYFPRRVAEDMNLPKMVFSPSSAATSISRCVLMENQSNGLLPPQDARSQLEETVPEFHPFRFKDLPFTAYGSMERLMILYENVSNRASSSGIIHNSSDCLENSFITTAQEKWGVPVYPVGPLHMTNSAMSCPSLFEEERNCLEWLEKQETSSVIYISMGSLAMTQDIEAVEMAMGFVQSNQPFLWVIRPGSINGQESLDFLPEQFNQTVTDGRGFVVKWAPQKEVLRHRAVGGFWNHGGWNSCLESISSGVPMICRPYSGDQRVNTRLMSHVWQTAYEIEGELERGAVEMAVRRLIVDQEGQEMRMRATILKEEVEASVTTEGSSHNSLNNLVHAIMMQIDEQ
B4: the “production” value is reported as “No production”.

B5: CsUGT73B1: UDP-glycosyl transferase from Cannabis sativa, amino acid sequence SEQ ID NO: 36 (protein, listed as Cannabis sativa)
chain: MSKEIWVVPFFGQGHLFPSMELCKQIASRNINTLLVIPSNLSFSIPSSLRQYPLLQIVEIQPTSAPSAQPGPDPIDQPPHGNPDQFEMGLENLLQAQVTGPDSVRPICAILDVMMDWTTEVFNKFDIPTIGFFTSGACSAAMEYGLWKAQPIDLKPGEVRLLPGLPEEMAVTYLDTNQRPHQPPGPPLHLFGVGHQGPFVDGAHRPPGPPPPPYLGRAGPRQRGPPKHGSQPPWVDGLKGSIALMINTCDYLERPFIEYLTKQIGKPVWGVGPLLPEQFWNSVSSNSILHDHEIRTNRQSNVSEDDVIQWLDSKPRGSVLYVCFGTEVSPSMEEYSELADALEASTQPFIWVVHSGTGRSGPPPSRGPTQEDYFPHGLASQVGPKGLIINGWAPQLLILSHSSIGGFLTHCGWNSTVEAIGLGVPLLAWPIRGDQNYNAKLVVAHLKLGFMISDNLSEKIKKHEIVKGIKTLMGDDDIKSRARNLAAIFQKGFPISSTTNLDVFRDMINNFT
On to B5, for which the “production” value is recorded as “No production”.
